In US20170119790A1, “Agents, Uses and Methods” (CYTOGUIDE A/S, priority 2009, published 2017):

Assays:
[1] = target: T1, CD163 transfected Flp-In CHO cells (Homo sapiens, UniProt Q86VB7); assay: Cellular binding and uptake (endocytosis) of 125I-labeled anti-CD163; type: cell-based
T1 construct: Stably transfected Chinese hamster ovary (CHO) cells expressing the full-length human CD163; expressed in transfected cells
Description: Monocytes were isolated from PBMC by negative selection using magnetic beads from Dynal (Dynabeads® MyPure™ Monocyte Kit 2; Invitrogen A/S, Taastrup, Denmark) according to instructions provided by the manufacturer. Monocyte preparations were more than 95% (CD14^+) pure determined by flow cytometry. The isolated cells were washed twice with phosphate-buffered saline. Monocyte-derived macrophages (MDMs) were prepared by cell culture of monocytes (approximately 1×10^7 cells) for 4 days in 5% CO2 and 37° C. in RPMI 1640 media (RPMI 1640+25 mM HEPES+I-glutamine) (Invitrogen Corporation, Carlsbad, Calif., USA) with 20% FCS containing 100 ng/ml of M-CSF. MDMs were then detached from the flask by incubation with cell dissociation buffer (Invitrogen A/S, Taastrup, Denmark) for 30 minutes at 4 °C, then flushed, and scraped. The cells were then cultured for 24 hours in RPMI 1640 media (RPMI 1640+25 mM HEPES+I-glutamine) (Invitrogen Corporation, Carlsbad, Calif., USA) supplemented with 20% FCS containing 100 ng/ml of M-CSF at 37° C. in 95% air and 5% CO2 in Lab-Tek™ Chamber Slides (Thermo Fisher Scientific, Roskilde, Denmark). 200 nM dexamethasone (Merck KGaA, Darmstadt, Germany) was added during culture to increase CD163 expression. Stably transfected Chinese hamster ovary (CHO) cells expressing the full-length human CD163, as described above, were cultured in serum-free CHO medium (HyQ-CCM, HyClone, Logan, Utah) containing 300 μg/ml Hygromycin B, as previously described (2).
Endocytosis of ^125I-labeled anti-CD163 was investigated in CD163 transfected Flp-In Chinese hamster ovary (CHO) cells and mock-transfected Flp-In as described (Madsen, M., Moller, H. J., Nielsen, M. J., Jacobsen, C., Graversen, J. H., van den Berg, T. and Moestrup, S. K. (2004) Molecular characterization of the haptoglobin.hemoglobin receptor CD163. Ligand binding properties of the scavenger receptor cysteine-rich domain region. J. Biol. Chem., 279, 51561-51567.)

CD163 = CD163 (Homo sapiens, UniProt Q86VB7); assay: Competition of binding to Mac2-158 epitope (SPR on Mac2-158 saturated CD163 chip); conditions: 2 mM free calcium buffer, mAb 5 μg/ml
Chain of CD163 (Q86VB7 42-1156): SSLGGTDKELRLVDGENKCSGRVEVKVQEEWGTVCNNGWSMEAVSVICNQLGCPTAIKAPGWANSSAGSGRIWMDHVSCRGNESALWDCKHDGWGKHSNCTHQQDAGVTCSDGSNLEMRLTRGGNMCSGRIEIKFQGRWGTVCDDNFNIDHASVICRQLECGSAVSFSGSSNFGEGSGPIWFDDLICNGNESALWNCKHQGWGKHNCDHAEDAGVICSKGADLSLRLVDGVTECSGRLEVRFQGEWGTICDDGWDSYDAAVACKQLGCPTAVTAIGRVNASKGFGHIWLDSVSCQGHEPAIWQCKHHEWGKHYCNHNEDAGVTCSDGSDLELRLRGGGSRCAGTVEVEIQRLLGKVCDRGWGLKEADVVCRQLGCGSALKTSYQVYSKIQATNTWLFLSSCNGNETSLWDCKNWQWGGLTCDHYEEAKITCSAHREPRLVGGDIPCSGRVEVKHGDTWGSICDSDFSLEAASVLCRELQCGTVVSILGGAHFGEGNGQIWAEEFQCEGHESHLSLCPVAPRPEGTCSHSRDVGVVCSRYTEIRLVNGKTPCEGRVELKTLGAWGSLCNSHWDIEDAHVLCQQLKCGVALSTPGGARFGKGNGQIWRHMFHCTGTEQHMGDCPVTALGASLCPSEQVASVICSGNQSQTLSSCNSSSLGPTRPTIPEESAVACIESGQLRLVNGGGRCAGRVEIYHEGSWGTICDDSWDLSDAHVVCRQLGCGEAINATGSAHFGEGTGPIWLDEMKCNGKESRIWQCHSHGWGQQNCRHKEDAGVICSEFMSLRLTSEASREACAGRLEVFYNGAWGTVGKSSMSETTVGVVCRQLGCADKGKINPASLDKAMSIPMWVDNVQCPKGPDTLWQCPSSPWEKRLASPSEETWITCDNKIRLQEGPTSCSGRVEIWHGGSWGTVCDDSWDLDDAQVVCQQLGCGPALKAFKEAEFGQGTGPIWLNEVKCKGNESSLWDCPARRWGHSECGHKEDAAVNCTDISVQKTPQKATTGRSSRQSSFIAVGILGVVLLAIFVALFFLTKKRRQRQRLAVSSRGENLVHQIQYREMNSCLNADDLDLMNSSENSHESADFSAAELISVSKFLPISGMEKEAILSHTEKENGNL
Description: To evaluate if there is competition in the binding of a range of mAbs to CD163 we first saturated the CD163-chip with Mac2-158 by injecting 50 μL of 50 μg/ml Mac2-158 and subsequently injecting relevant mAbs in 5 μg/ml. The binding buffer was CaHBS 10 mM Hepes, 150 mM NaCl, 3.0 mM CaCl2, 1.0 mM EGTA, and 0.005% Tween 20, pH 7.4.

human CD163 wt = target: T2, human CD163 wt (Homo sapiens, UniProt Q86VB7); assay: Western blotting of human CD163 and knock out mutants; type: binding
T2 construct: a pcDNA5-FRT-humanCD163 plasmid harboring the full length human CD163 cDNA; expressed in transfected cells; host or cells: HEK 293, transient
T2 sequence (Q86VB7 42-1156): as above
Description: Each cell pellet was added 1 ml lysis buffer (10 mM Tris pH 8, 140 mM NaCl, 15 mM MgSO4, 1% Triton X-100) and incubated for 15 min at 4 °C with rotation. After centrifugation for 30 min at 6000 rpm the supernatants were sterile filtered.
90 μl of each of the supernatants were added 30 μl of 4×LDS sample buffer. 3×20 μl samples of each supernatant and 8 μl SeeBlue plus2 prestained marker were loaded on NuPage 4-12% Bis-Tris-Gels (Invitrogen, Taastrup, Denmark) and the SDS-PAGEs were run with MOPS running buffer according to instructions of the manufacturer (200 V constant for 50 min). Blotting to PVDF membranes (Invitrogen, Taastrup, Denmark) was done on an iBLOT device according to instructions of the manufacturer. After blotting the membranes were washed briefly in 1×PBS 0.1% Tween and blocked for 30 min in 1×PBS 2% Tween at room temperature with shaking. After blocking the membranes were washed 3×5 min in 1×PBS 0.1% Tween and incubated 1 hour with: (1) 10 ml 1 μg/ml polyclonal rabbit anti-human CD163; (2) 10 ml 1 μg/ml Mac2-158; (3) 10 ml 1:500 KN2/NRY-HRP all diluted in 1×PBS 0.1% Tween. The membranes were washed with 3×5 min 1×PBS 0.1% Tween again and incubated with: (1) 10 ml Goat anti-rabbit-HRP 1:1000 (AbD Serotec, Oxford, UK); or (2) 10 ml Goat anti-mouse-HRP 1:1000 (Dako, Glostrup, Denmark) for 1 hour. […]

T1 sequence (Q86VB7 42-1156): as above

B1: MAC2-158: anti-human CD163 murine mAb, binds SRCR domain 1, IQ Products; VH SEQ ID NO: 1, VL SEQ ID NO: 2 (antibody, V domains shown)
VH: DVQLQESGPGLVKPSQSLSLTCTVTGYSITSDYAWNWIRQFPGNKLEWMGYITYSGITNYNPSLKSQISITRDTSKNQFFLQLNSVTTEDTATYYCVSGTYYFDYWGQGTTLTVSS
VL: SVVMTQTPKSLLISIGDRVTITCKASQSVSSDVAWFQQKPGQSPKPLIYYASNRYTGVPDRFTGSGYGTDFTFTISSVQAEDLAVYFCGQDYTSPRTFGGGTKLEIKRA
modifications: Mac2-158 VH; Mac2-158 VL
time course of cell-associated radioactivity (bound or internalized) ([1]; 125I-labelled mAb, increasing time points): did not reach a plateau
percentage of cell-associated radioactivity reached ([1]; 125I-labelled mAb, stable CD163 transfected Flp-In CHO cells): 61.27%
cellular uptake and binding to CD163-expressing cells ([1]; compared with the other tested antibodies, FIG. 5): considerably higher
binding to CD163-Fc saturated with Mac2-158 (CD163): not able to bind
binding in western blot (human CD163 wt): bound
